Experimental findings from publication PMC7895384 are described below.

Assay [1] addresses Six4-HA (HA-tagged Six4, Six4-3xHA) (Drosophila). Put plainly: co-IP; two of the three tagged proteins co-expressed in S2 cells; graded concentrations (150mM to 1200mM) of NaCl in the 1% NP-40 lysis buffer (S7C-E Fig; lanes with two proteins of S7F Fig, % co-IP quantified from band intensities, n = 3).
Assay [2] has the same target. Briefly: co-IP; Six4-HA, Myc-Erm and Flag-PntP1 all three co-expressed in S2 cells; IP with anti-HA or anti-Flag antibody; 150mM or 1200mM NaCl; % co-IP quantified from band intensities, normalized by the IPed protein, n = 3 (S7F Fig).

“Myc-Erm (Myc-tagged Earmuff) (from UniProt Q9VQ56 1-611) (natural protein)” registered a % co-IPed Myc-Erm with the anti-HA antibody (1200mM NaCl, without Flag-PntP1) in assay [1] of 6.7%. This substance displayed a % co-IPed Myc-Erm with the anti-HA antibody (1200mM NaCl, Flag-PntP1 co-expressed) in assay [2] of 13.6%.
